Legend:
[1] = molecular target: T1, recombinant purified FRα (ECL assay calibrator) (human, UniProt P15328 25-234); assay: ECL sandwich on FRα, signal to background; capture 30G6.G6.G4.E9; binder = detection Ab
T1 construct: Calibrator of the ECL sandwich assays; also called FRα calibrator; FRα standard

[2] = molecular target: T1, recombinant purified FRα (ECL assay …); assay: ECL sandwich, FRα calibrator; capture 26A9.C4; binder = detection Ab
[3] = molecular target: T2, recombinant human folate receptor alpha (rhFRα) (human, UniProt P15328 25-234); assay: BIAcore (SPR), format not described
T2 construct: CHO: Ig kappa leader, C-terminal 6xHis replacing the GPI attachment site; also called FOLR1; FOLR-1

[4] = molecular target: T1, recombinant purified FRα (ECL assay …); assay: ECL sandwich on FRα, signal to background; capture 19D2.G9; binder = detection Ab
[5] = molecular target: T1, recombinant purified FRα (ECL assay …); assay: ECL sandwich, FRα calibrator; capture 2F11.F8; binder = detection Ab
[6] = molecular target: T1, recombinant purified FRα (ECL assay …); assay: ECL sandwich on FRα, signal to background; capture 19D4.B7; binder = detection Ab
[7] = molecular target: T1, recombinant purified FRα (ECL assay …); assay: ECL sandwich, FRα calibrator; capture 1A8.G11.E7; binder = detection Ab
[8] = molecular target: T1, recombinant purified FRα (ECL assay …); assay: ECL sandwich on FRα, signal to background; capture 2F11.F8; binder = detection Ab
[9] = molecular target: T3, human folate receptor beta (FRβ), recombinant, C-terminal 6xHis (human, UniProt P14207 17-230, limits assumed); assay: direct ELISA, plates coated with 1 µg/mL FR isoform, dilution series of culture supernatant
T3 construct: Transiently expressed in 293F cells and purified; coated on ELISA plates

[10] = molecular target: T4, human folate receptor gamma (FRγ), recombinant, C-terminal 6xHis (human, UniProt P41439 23-245, limits assumed); assay: as above
T4 construct: Transiently expressed in 293F cells and purified; coated on ELISA plates

[11] = molecular target: T1, recombinant purified FRα (ECL assay …); assay: ECL sandwich, FRα calibrator; capture 1C6.E12.G8; binder = detection Ab
[12] = molecular target: T1, recombinant purified FRα (ECL assay …); assay: ECL sandwich on FRα, signal to background; capture 1D2.G8.G10; binder = detection Ab
[13] = molecular target: T1, recombinant purified FRα (ECL assay …); assay: ECL sandwich on FRα, signal to background; capture 1A8.G11.E7; binder = detection Ab
[14] = molecular target: T1, recombinant purified FRα (ECL assay …); assay: ECL sandwich, FRα calibrator; capture 24H8.D3; binder = detection Ab
[15] = molecular target: T1, recombinant purified FRα (ECL assay …); assay: ECL sandwich on FRα, signal to background; capture 24H8.F3; binder = detection Ab
[16] = molecular target: T1, recombinant purified FRα (ECL assay …); assay: ECL sandwich on FRα, signal to background; capture 5C12.H8; binder = detection Ab
[17] = molecular target: T1, recombinant purified FRα (ECL assay …); assay: ECL sandwich, FRα calibrator; capture 19D2.G9; binder = detection Ab
[18] = molecular target: T1, recombinant purified FRα (ECL assay …); assay: ECL sandwich on FRα, signal to background; capture 24H8.D3; binder = detection Ab
[19] = molecular target: T1, recombinant purified FRα (ECL assay …); assay: ECL sandwich, FRα calibrator; capture 19D4.B7; binder = detection Ab
[20] = molecular target: T1, recombinant purified FRα (ECL assay …); assay: ECL sandwich, FRα calibrator; capture 24H8.F3; binder = detection Ab
[21] = molecular target: T1, recombinant purified FRα (ECL assay …); assay: ECL sandwich on FRα, signal to background; capture 1C6.E12.G8; binder = detection Ab
[22] = molecular target: T1, recombinant purified FRα (ECL assay …); assay: ECL sandwich, FRα calibrator; capture 28H12.G9; binder = detection Ab
[23] = molecular target: T1, recombinant purified FRα (ECL assay …); assay: ECL sandwich, FRα calibrator; capture 6A2.G7; binder = detection Ab
[24] = molecular target: T1, recombinant purified FRα (ECL assay …); assay: ECL sandwich on FRα, signal to background; capture 26A9.C4; binder = detection Ab
[25] = molecular target: T1, recombinant purified FRα (ECL assay …); assay: ECL sandwich on FRα, signal to background; capture 6A2.G7; binder = detection Ab
[26] = molecular target: T1, recombinant purified FRα (ECL assay …); assay: ECL sandwich on FRα, signal to background; capture 28H12.G9; binder = detection Ab
[27] = molecular target: T1, recombinant purified FRα (ECL assay …); assay: ECL sandwich, FRα calibrator; capture 1D2.G8.G10; binder = detection Ab
[28] = molecular target: T1, recombinant purified FRα (ECL assay …); assay: ECL sandwich, FRα calibrator; capture 30G6.G6.G4.E9; binder = detection Ab
[29] = molecular target: T1, recombinant purified FRα (ECL assay …); assay: ECL sandwich, FRα calibrator; capture 5C12.H8; binder = detection Ab

T3 sequence (P14207 other isoform, or with tags, fused parts or gaps limits assumed): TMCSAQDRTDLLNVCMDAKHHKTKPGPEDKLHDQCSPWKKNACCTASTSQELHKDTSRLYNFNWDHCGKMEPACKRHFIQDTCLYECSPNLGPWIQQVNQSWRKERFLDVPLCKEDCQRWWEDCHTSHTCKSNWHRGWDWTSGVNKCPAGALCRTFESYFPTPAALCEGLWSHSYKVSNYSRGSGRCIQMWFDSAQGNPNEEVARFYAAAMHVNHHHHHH
T4 sequence (P41439 other isoform, or with tags, fused parts or gaps limits assumed): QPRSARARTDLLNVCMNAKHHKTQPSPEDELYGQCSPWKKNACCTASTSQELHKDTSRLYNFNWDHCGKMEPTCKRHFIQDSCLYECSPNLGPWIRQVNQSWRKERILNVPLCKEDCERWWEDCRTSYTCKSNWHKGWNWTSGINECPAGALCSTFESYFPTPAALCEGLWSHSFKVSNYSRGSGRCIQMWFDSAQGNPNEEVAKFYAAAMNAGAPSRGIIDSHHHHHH
T2 sequence (P15328 25-234 limits assumed): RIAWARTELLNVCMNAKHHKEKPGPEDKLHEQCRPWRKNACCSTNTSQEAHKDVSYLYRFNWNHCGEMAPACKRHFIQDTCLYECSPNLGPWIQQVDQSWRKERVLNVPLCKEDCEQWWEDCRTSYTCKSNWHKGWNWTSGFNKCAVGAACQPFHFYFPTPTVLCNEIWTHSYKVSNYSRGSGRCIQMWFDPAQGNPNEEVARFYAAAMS
T1 sequence (P15328 25-234 limits assumed): as above

| Average of S/B [1] | Specific signal at 500 pg/mL [2] | Kd [3] | Average of S/B [4] | Specific signal at 500 pg/mL [5] | Average of S/B [6] | Specific signal at 500 pg/mL [7] | Average of S/B [8] | binding result [9] | binding result [10] | Specific signal at 500 pg/mL [11] | Average of S/B [12] | Average of S/B [13] | Specific signal at 500 pg/mL [14] | Average of S/B [15] | Average of S/B [16] | Specific signal at 500 pg/mL [17] | Average of S/B [18] | Specific signal at 500 pg/mL [19] | Specific signal at 500 pg/mL [20] | Binder | other results |
| --- | --- | --- | --- | --- | --- | --- | --- | --- | --- | --- | --- | --- | --- | --- | --- | --- | --- | --- | --- | --- | --- |
| 61 | 78 | 10.8 nM | 1 | 123 | 253 | 66 | 1 | no binding | no binding | 58 | 1 | 1 | 71 | 1 | 1 | 77 | 1 | 18400 | 60 | Monoclonal antibody 5C12.H8 (antibody, mouse IgG2b, V domains shown, Murine IgG2b kappa from hybridoma; also called ATCC PTA-123095) VH: GPGLVKPSQSLSLTCSVTGYSITSGYYWIWIRQFPGNKLEWMGYISYDGSNNYNPSLKNRISITRDTSKNQFFLKLNSVTTEDTATYYCARGNYYAMDYWGQGTSVTVSS VL: not shown | Average of S/B [21]: 1; Specific signal at 500 pg/mL [22]: 68; Specific signal at 500 pg/mL [23]: 596; Average of S/B [24]: 1; Average of S/B [25]: 9; Average of S/B [26]: 1; Specific signal at 500 pg/mL [27]: 57; Specific signal at 500 pg/mL [28]: 5290; Specific signal at 500 pg/mL [29]: 100 |
| 144 | 73 | 9.76 nM | 1 | 67 | 449 | 54 | 1 | no binding | no binding | 86 | 1 | 1 | 74 | 1 | 1 | 80 | 1 | 37500 | 75 | Monoclonal antibody 1C6.E12.G8 (antibody, mouse IgG1, V domains shown, Murine IgG1 kappa from hybridoma; also called ATCC PTA-123091) VH: SGARELVKPGASVKLSCKTSGFTFNSSYITWLKQKPGQSLEWIAWIYAGNGGTTYNQKFTGKAQLTVDTSSSTAYMQFSSLTTEDSAIYYCASETYTNYWYFDVWGSGTTVTVSS VL: QSPASLSASVGETVTITCRASGNIHNYLAWYQQKQGKSPQLLVYNAKTLADGVPSRFSGSGSGTQYSLKINSLQPEDFGSYYCQHFWSTPYTFGGGTKLEIK | Average of S/B [21]: 1; Specific signal at 500 pg/mL [22]: 92; Specific signal at 500 pg/mL [23]: 967; Average of S/B [24]: 1; Average of S/B [25]: 19; Average of S/B [26]: 1; Specific signal at 500 pg/mL [27]: 53; Specific signal at 500 pg/mL [28]: 10900; Specific signal at 500 pg/mL [29]: 70 |
| 31 | 347 | 15 nM | 205 | 283 | 145 | 6000 | 5 | no binding | no binding | 217 | 5 | 89 | 6620 | 63 | 1 | 11700 | 109 | 10800 | 3890 | Monoclonal antibody 6A2.G7 (antibody, mouse IgG1, V domains shown, Murine IgG1 kappa from hybridoma; also called ATCC PTA-123093) VH: GADLVKPGASVKMSCKASGYTFSRYNMHWVKQTPGQGLEWIGTIYPGNGDTSYNEKFKGKATLTADKSSSIVYMQVSSLTSEASAVYYCARDYGSRYALDYWGQGTSVTVSS VL: SSLSASLGDRVTISCRASQDISNYLNWYQQKPDGTVKLLIYYTSRLHSGVPSRFSGSGSGTDYSLTISNLEQEDIATYFCQQGNTLPYTFGGGTKLEIK | Average of S/B [21]: 3; Specific signal at 500 pg/mL [22]: 432; Specific signal at 500 pg/mL [23]: 92; Average of S/B [24]: 4; Average of S/B [25]: 1; Average of S/B [26]: 7; Specific signal at 500 pg/mL [27]: 347; Specific signal at 500 pg/mL [28]: 2410; Specific signal at 500 pg/mL [29]: 100 |

Source: patent US20180148504A1 (EISAI R AND D MANAGEMENT, published 2018)
